The results in this text go back to patent publication US20240279315A1 (priority 2023, published 2024).

Where two headings read alike, the source gives them in different places.

Common to all, as to assay: cell-based or functional assay
Assay [1] concerns the target hemagglutinin (HA) of influenza A/Switzerland/9715293/2013 H3N2 (influenza A virus A/Switzerland/9715293/2013 (H3N2)).
Assay [2] concerns the target hemagglutinin (HA) of influenza B/Colorado/06/2017 B-Vic (influenza B virus B/Colorado/06/2017).
Assay [3] concerns the target hemagglutinin (HA) of influenza A/Singapore/INFIMH-16-0019/2016 H3N2 (influenza A virus A/Singapore/INFIMH-16-0019/2016 (H3N2)).
Assay [4] concerns the target hemagglutinin (HA) of influenza B/Brisbane/60/2008 B-Vic (influenza B virus B/Brisbane/60/2008).
The target of assay [5] is hemagglutinin (HA) of influenza B/Maryland/15/2016 B-Vic (influenza B virus B/Maryland/15/2016).
In assay [6] the target is hemagglutinin (HA) of influenza B/Phuket/3073/2013 B-Yam (influenza B virus B/Phuket/3073/2013).
Assay [7] deals with hemagglutinin (HA) of influenza A/Hong Kong/4801/2014 H3N2 (influenza A virus A/Hong Kong/4801/2014 (H3N2)).
The target in assay [8] is hemagglutinin (HA) of influenza A/Sydney/5/2021 (influenza A virus A/Sydney/5/2021).
Assay [9] addresses hemagglutinin (HA) of influenza A/Brisbane/02/2018 H1N1 (influenza A virus A/Brisbane/02/2018 (H1N1)).
For assay [10], the target named is hemagglutinin (HA) of influenza B/Colorado/06/2017 B-Vic (influenza B virus B/Colorado/06/2017). This is another data set of the same source.
Assay [11] has as its target hemagglutinin (HA) of influenza B/Austria/1359417/2021 (influenza B virus B/Austria/1359417/2021).
The target in assay [12] is hemagglutinin (HA) of influenza B/Washington/02/2019 B-Vic (influenza B virus B/Washington/02/2019).
Assay [13] deals with hemagglutinin (HA) of influenza A/Singapore/INFIMH-16-0019/2016 H3N2 (influenza A virus A/Singapore/INFIMH-16-0019/2016 (H3N2)). This is another data set of the same source.
In assay [14] the target is hemagglutinin (HA) of influenza A/Darwin/6/2021 (influenza A virus A/Darwin/6/2021).
The target in assay [15] is hemagglutinin (HA) of influenza A/Hawaii/70/2019 (influenza A virus A/Hawaii/70/2019).
Assay [16] concerns the target hemagglutinin (HA) of influenza A/Wisconsin/588/2019 (influenza A virus A/Wisconsin/588/2019).
The target of assay [17] is hemagglutinin (HA) of influenza A/Tasmania/503/2020 (H3N2) (influenza A virus A/Tasmania/503/2020 (H3N2)).
Assay [18] has as its target hemagglutinin (HA) of influenza A/Kansas/14/2017 H3N2 (influenza A virus A/Kansas/14/2017 (H3N2)).
For assay [19], the target named is hemagglutinin (HA) of influenza B/Phuket/3073/2013 B-Yam (influenza B virus B/Phuket/3073/2013). The source holds these as a separate data set.
Assay [20] deals with hemagglutinin (HA) of influenza A/Brisbane/02/2018 H1N1 (influenza A virus A/Brisbane/02/2018 (H1N1)). This is another data set of the same source.
Assay [21] concerns the target hemagglutinin (HA) of influenza A/Victoria/2570/2019 H1N1 (influenza A virus A/Victoria/2570/2019 (H1N1)).
For assay [22], the target named is hemagglutinin (HA) of influenza A/Hong Kong/45/2019 H3N2 (influenza A virus A/Hong Kong/45/2019 (H3N2)).
Assay [23] has as its target hemagglutinin (HA) of influenza A/Cambodia/e0826360/2020 H3N2 (influenza A virus A/Cambodia/e0826360/2020 (H3N2)).
Assay [24] addresses hemagglutinin (HA) of influenza B/Washington/02/2019 B-Vic (influenza B virus B/Washington/02/2019). This is another data set of the same source.
The target of assay [25] is hemagglutinin (HA) of influenza B/California/12/2015 B-Yam (influenza B virus B/California/12/2015).
For assay [26], the target named is hemagglutinin (HA) of influenza A/Kansas/14/2017 H3N2 (influenza A virus A/Kansas/14/2017 (H3N2)). This is another data set of the same source.
Assay [27] addresses hemagglutinin (HA) of influenza A/Brisbane/02/2018 H1N1 (influenza A virus A/Brisbane/02/2018 (H1N1)). The source holds these as a separate data set.
The target of assay [28] is hemagglutinin (HA) of influenza A/Victoria/2570/2019 H1N1 (influenza A virus A/Victoria/2570/2019 (H1N1)). The source holds these as a separate data set.

For the substance SAB-176 (antibody), the HAI titer was greater than 2048 titer in assay [1]; 512 titer in assay [2]; 512 titer in assay [3]; 64 titer in assay [4]; 512 titer in assay [5]; 512 titer in assay [6]. The substance further showed an HAI titer in assay [7] of 1024 titer.

In the case of SAB-176 Lot 1 (PD1901102QR) (antibody), the HAI titer in assay [8] is 320 titer; in assay [9], 1280 titer; in [10], 160 titer; in assay [11], 28 titer; in assay [12] it was 160 titer; in assay [13] it was 320 titer. For the same substance, the HAI titer in [14] was 113 titer; in [15], 1280 titer; in assay [16], 320 titer; in assay [17] it was 40 titer; in assay [18] it was 40 titer; in assay [19], 160 titer. For the same substance, the HAI titer in [20] came to 512 titer; in assay [21] it was 256 titer; in assay [22] it was 64 titer; in assay [23] it was 128 titer; in assay [2], 256 titer; in assay [24], 64 titer. Further, the HAI titer in assay [3] came out at 512 titer; in assay [25] it was 128 titer; in assay [26], 64 titer; in assay [5], 256 titer; in assay [6] it was 128 titer. Further, the HAI titer ratio of SAB-176 to hIVIG in [20] was 16 to 32 X; in assay [21], 16 to 32 X; in assay [22], 4 to 8 X; in assay [23], 4 to 8 X; in assay [2] it was 16 to 32 X; in assay [24], 8 to 16 X. Moreover, the HAI titer ratio of SAB-176 to hIVIG is 8 to 32 X in [3]; 16 to 32 X in assay [25]; 2 to 16 X in assay [26]; 16 to 32 X in assay [5]; 16 X in assay [6]. The HAI titer of drug product in assay [3] amounted to 7680 titer; in assay [5], 3840 titer; in assay [6] it was 1920 titer.

SAB-176 Lot 2 (PD2001010QR) (antibody): the HAI titer in [8] is 320 titer; in assay [9], 1280 titer; in assay [10], 320 titer; in assay [11], 28 titer; in [12] it was 160 titer; in [13], 320 titer. The HAI titer was determined as 113 titer in [14]; 640 titer in assay [15]; 640 titer in assay [16]; 160 titer in [17]; 40 titer in assay [18]; 160 titer in assay [19]. The HAI titer in [27] was 512 titer; in assay [23], 256 titer; in [2], 256 titer; in [28], 256 titer; in assay [24], 128 titer; in assay [3] it was 512 titer. The HAI titer in assay [25] worked out at 128 titer; in assay [26], 64 titer; in [5], 256 titer; in assay [6] it was 256 titer. The HAI titer ratio of SAB-176 to hIVIG in assay [27] lay in the range of 16 to 32 X; in [23], 8 to 16 X; in [2], 16 to 32 X; in [28] it was 16 to 32 X; in assay [24], 16 to 32 X; in assay [3], 8 to 32 X. Also, the HAI titer ratio of SAB-176 to hIVIG is 16 to 32 X in [25], 2 to 16 X in assay [26], 16 to 32 X in assay [5] and 32 X in assay [6]. The figures for the HAI titer of drug product in [3], in assay [5] and in [6] were 7170 titer, 3580 titer and 3580 titer, respectively.

On to SAB-176 Lot 3 (antibody), for which the HAI titer in [27] was 512 titer; in [23], 256 titer; in assay [2], 256 titer; in [28], 256 titer; in assay [24], 64 titer; in assay [3], 512 titer. The HAI titer in assay [25] amounted to 128 titer; in assay [26] it was 512 titer; in [5], 128 titer; in [6], 128 titer. Besides, the HAI titer ratio of SAB-176 to hIVIG in assay [27] was in the range of 16 to 32 X; in assay [23] it was 8 to 16 X; in assay [2], 16 to 32 X; in assay [28], 16 to 32 X; in assay [24] it was 8 to 16 X; in [3], 8 to 32 X. In addition, the HAI titer ratio of SAB-176 to hIVIG is 16 to 32 X in assay [25], 16 to 128 X in assay [26], 8 to 16 X in [5] and 16 X in assay [6].

As to SAB-176 Lot 5 (PD2203294QR) (antibody), the HAI titer in [8] was found to be 1280 titer; in [9] it was 1280 titer; in assay [10], 160 titer; in [11], 40 titer; in assay [12] it was 320 titer; in assay [13] it was 320 titer. For the same substance, the HAI titer in [14] was found to be 320 titer; in assay [15], 1810 titer; in assay [16] it was 1280 titer; in assay [17], 640 titer; in assay [18] it was 320 titer; in [19], 80 titer. Moreover, the HAI titer of drug substance turned out to be 3840 titer in [23], 7680 titer in assay [28], 3840 titer in [24] and 1920 titer in assay [6].

For the substance SAB-176 Lot 6 (PD2204315QR) (antibody), the HAI titer in assay [8] was found to be 1280 titer; in assay [9], 1280 titer; in [10], 160 titer; in assay [11], 40 titer; in assay [12], 320 titer; in assay [13], 320 titer. For the same substance, the HAI titer is 160 titer in assay [14]; 1810 titer in assay [15]; 1280 titer in assay [16]; 640 titer in assay [17]; 320 titer in [18]; 160 titer in [19]. Further, the HAI titer of drug substance in [23] is 7680 titer; in assay [28] it was 7680 titer; in assay [24], 3840 titer; in [6] it was 1920 titer.

Take negative control IgG (antibody): the HAI titer in assay [22], in assay [27], in assay [23], in assay [1], in assay [2] and in [28] was less than 1 titer each time. The HAI titer in assay [24], in [3], in assay [4], in [25], in assay [26] and in assay [5] was less than 1 titer each time. Besides, the HAI titer in [6] and in [7] was less than 1 titer in each case.
